Measured values as given in patent publication US20240400715A1 (VIBRANT PHARMA, published 2024).

Experiments:
[1] = target: T1, human CD3ε/δ (ACRO systems, CDD-H52W1) (human, UniProt P07766 23-126; P04234 22-105); assay: serum-stability ELISA, Day 0 (reference)
T1 construct: bought recombinant heterodimer; also called human CD3 epsilon/delta; Human CD3ε/CD3δ

[2] = target: T1, human CD3ε/δ (ACRO systems, CDD-H52W1); assay: serum-stability ELISA, Day 6 vs Day 0
Description: (§1) The samples to be tested were centrifuged at 4° C. at 12000 rpm for 30 minutes to remove the precipitate. 200 μl of each sample to be tested (0.5 mg/ml) was collected in a 1.5 ml Eppendorf tube. An equal volume of human serum (GEMINI, H2OYOOK) was added, mixed thoroughly, and the mixture was incubated in a 37° C. constant temperature CO₂ incubator. For a total of 10 days, 40 μl samples was aspirated every day and stored at −20° C.
(§2) Enzyme-linked immunosorbent assay (ELISA) was used to test the bispecific antibodies' binding to human CEA and human CD3 epsilon/delta antigen. The steps are as follows: the antigen human CD3ε/δ (ACRO systems, CDD-H52W1) and the recombinant tumor antigen human CEA (CEACAM-5/CD66e, ACRO systems, CE5-H5226) were diluted to 1 μg/ml with PBS, and then added to the 96-well plate at 100 μl per well. The wells were coated overnight at 4° C. After washing 3 times with 0.05% PBST, 200 μl 5% skimmed milk powder was added to each well and incubated at 37° C. for 2 h. After washing 3 times with 0.05% PBST, 100 μl primary antibody sample (10 μg/ml) was added to each well, and incubated at 37° C. for 2 h. After washing 3 times with 0.05% PBST, 100 μl (1:6000) diluted secondary antibody goat anti-human Fc-HRP (sigma, A2170) was added to each well, incubated at room temperature for 1 h. After washing 8 times with 0.05% PBST, 50 μl TMB color developing solution was added to each well, and incubated at room temperature for 10-15 min. 50 μl 1 mM HCl was added to each well to stop the color development. 450 nm Absorbance (OD) was read.
(§3) The binding of antibodies to antigen was calculated according to the following formula: Binding (%)=[(ODdayn−ODb)/(ODday0−ODb)]×100%. ODdayn: experimental well (the protein was stored in the serum for n days); ODday0: control well (the protein was not stored in the serum); ODb: blank well (no primary antibody added).

[3] = target: T1, human CD3ε/δ (ACRO systems, CDD-H52W1); assay: serum-stability ELISA, Day 1 vs Day 0
Description: as §1, §2, §3

[4] = target: T1, human CD3ε/δ (ACRO systems, CDD-H52W1); assay: serum-stability ELISA, Day 5 vs Day 0
Description: as §1, §2, §3

[5] = target: T1, human CD3ε/δ (ACRO systems, CDD-H52W1); assay: serum-stability ELISA, Day 7 vs Day 0
Description: as §1, §2, §3

[6] = target: T1, human CD3ε/δ (ACRO systems, CDD-H52W1); assay: serum-stability ELISA, Day 2 vs Day 0
Description: as §1, §2, §3

[7] = target: T1, human CD3ε/δ (ACRO systems, CDD-H52W1); assay: serum-stability ELISA, Day 9 vs Day 0
Description: as §1, §2, §3

[8] = target: T1, human CD3ε/δ (ACRO systems, CDD-H52W1); assay: serum-stability ELISA, Day 10 vs Day 0
Description: as §1, §2, §3

[9] = target: T1, human CD3ε/δ (ACRO systems, CDD-H52W1); assay: serum-stability ELISA, Day 1 vs Day 0; remark: listed apart in the source
Description: as §1, §2, §3

[10] = target: T1, human CD3ε/δ (ACRO systems, CDD-H52W1); assay: serum-stability ELISA, Day 5 vs Day 0; remark: listed apart in the source
Description: as §1, §2, §3

[11] = target: T1, human CD3ε/δ (ACRO systems, CDD-H52W1); assay: serum-stability ELISA, Day 10 vs Day 0; remark: listed apart in the source
Description: as §1, §2, §3

[12] = target: T1, human CD3ε/δ (ACRO systems, CDD-H52W1); assay: serum-stability ELISA, Day 2 vs Day 0; remark: listed apart in the source
Description: as §1, §2, §3

[13] = target: T1, human CD3ε/δ (ACRO systems, CDD-H52W1); assay: serum-stability ELISA, Day 0 (reference); remark: listed apart in the source
[14] = target: T1, human CD3ε/δ (ACRO systems, CDD-H52W1); assay: serum-stability ELISA, Day 6 vs Day 0; remark: listed apart in the source
Description: as §1, §2, §3

[15] = target: T1, human CD3ε/δ (ACRO systems, CDD-H52W1); assay: serum-stability ELISA, Day 7 vs Day 0; remark: listed apart in the source
Description: as §1, §2, §3

[16] = target: T1, human CD3ε/δ (ACRO systems, CDD-H52W1); assay: serum-stability ELISA, Day 9 vs Day 0; remark: listed apart in the source
Description: as §1, §2, §3

Binder	Binding % [1]	Binding % [2]	Binding % [3]	Binding % [4]	Binding % [5]	Binding % [6]	Binding % [7]	Binding % [8]	Binding % [9]	Binding % [10]	Binding % [11]	Binding % [12]	Binding % [13]	Binding % [14]	Binding % [15]	Binding % [16]
302 (TA3), configuration of FIG. 1W (bispecific antibody, not shown: kappa light chain constant domain (CL)) heavy: EVQLVESGGGLVQPGGSLRLSCAASGYSFTGYTMNWVRQAPGKGLEWVALINPYKGVSTYNQKFKDRFTISVDKSKNTAYLQMNSLRAEDTAVYYCARSGYYGDSDWYFDVWGQGTLVTVSSASTKGPSVFPLAPCSRSTSESTAALGCLVKDYFPEPVTVSWNSGALTSGVHTFPAVLQSSGLYSLSSVVTVPSSSLGTKTYTCNVDHKPSNTKVDKRVESKYGPPCPPCPAPEAAGGPSVFLFPPKPKDTLMISRTPEVTCVVVDVSQEDPEVQFNWYVDGVEVHNAKTKPREEQFNSTYRVVSVLTVLHQDWLNGKEYKCKVSNKGLPSSIEKTISKAKGQPREPQVYTLPPCQEEMTKNQVSLWCLVKGFYPSDIAVEWESNGQPENNYKTTPPVLDSDGSFFLYSRLTVDKSRWQEGNVFSCSVMHEALHNHYTQKSLSLSL EVQLVESGGGFVQAGESLTLSCTSSTLTFTPYRMAWYRQAPGKQRDLVADISSGDGRTTNYADFAKGRFTISRDNIKNTVFLRMTNLKPEDTAVYYCNTFVSFVGIARSWGQGTQVTVSSESKYGPPCPPCPAPEAAGGPSVFLFPPKPKDTLMISRTPEVTCVVVDVSQEDPEVQFNWYVDGVEVHNAKTKPREEQFNSTYRVVSVLTVLHQDWLNGKEYKCKVSNKGLPSSIEKTISKAKGQPREPQVCTLPPSQEEMTKNQVSLSCAVKGFYPSDIAVEWESNGQPENNYKTTPPVLDSDGSFFLVSRLTVDKSRWQEGNVFSCSVMHEALHNRFTQKSLSLSL light: DIQMTQSPSSLSASVGDRVTITCRASQDIRNYLNWYQQKPGKAPKLLIYYTSRLESGVPSRFSGSGSGTDYTLTISSLQPEDFATYYCQQGNTLPWTFGQGTKVEIK	100%	107%	108%	110%	104%	104%	103%	106%	–	–	–	–	–	–	–	–
304 (TA5), configuration of FIG. 1W (bispecific antibody, VL row printed 'TAS VL', read as TA5 VL; full chains assembled from parts; not shown: kappa light chain constant domain (CL)) heavy: DVQLVQSGAEVKKPGASVKVSCKASGYTFTRYTMHWVRQAPGQGLEWIGYINPSRGYTNYADSVKGRFTITTDKSTSTAYMELSSLRSEDTATYYCARYYDDHYCLDYWGQGTTVTVSSASTKGPSVFPLAPCSRSTSESTAALGCLVKDYFPEPVTVSWNSGALTSGVHTFPAVLQSSGLYSLSSVVTVPSSSLGTKTYTCNVDHKPSNTKVDKRVESKYGPPCPPCPAPEAAGGPSVFLFPPKPKDTLMISRTPEVTCVVVDVSQEDPEVQFNWYVDGVEVHNAKTKPREEQFNSTYRVVSVLTVLHQDWLNGKEYKCKVSNKGLPSSIEKTISKAKGQPREPQVYTLPPCQEEMTKNQVSLWCLVKGFYPSDIAVEWESNGQPENNYKTTPPVLDSDGSFFLYSRLTVDKSRWQEGNVFSCSVMHEALHNHYTQKSLSLSL EVQLVESGGGFVQAGESLTLSCTSSTLTFTPYRMAWYRQAPGKQRDLVADISSGDGRTTNYADFAKGRFTISRDNIKNTVFLRMTNLKPEDTAVYYCNTFVSFVGIARSWGQGTQVTVSSESKYGPPCPPCPAPEAAGGPSVFLFPPKPKDTLMISRTPEVTCVVVDVSQEDPEVQFNWYVDGVEVHNAKTKPREEQFNSTYRVVSVLTVLHQDWLNGKEYKCKVSNKGLPSSIEKTISKAKGQPREPQVCTLPPSQEEMTKNQVSLSCAVKGFYPSDIAVEWESNGQPENNYKTTPPVLDSDGSFFLVSRLTVDKSRWQEGNVFSCSVMHEALHNRFTQKSLSLSL light: DIVLTQSPATLSLSPGERATLSCRASQSVSYMNWYQQKPGKAPKRWIYDTSKVASGVPARFSGSGSGTDYSLTINSLEAEDAATYYCQQWSSNPLTFGGGTKVEIK	100%	105%	108%	100%	107%	106%	101%	101%	–	–	–	–	–	–	–	–
305 (TA6), configuration of FIG. 1W (bispecific antibody, not shown: kappa light chain constant domain (CL)) heavy: EVQLVQSGAEVKKPGASVKVSCKASGYTFTNYYIHWVRQAPGQGLEWIGWIYPGDGNTKYNEKFKGRATLTADTSTSTAYLELSSLRSEDTAVYYCARDSYSNYYFDYWGQGTLVTVSSASTKGPSVFPLAPCSRSTSESTAALGCLVKDYFPEPVTVSWNSGALTSGVHTFPAVLQSSGLYSLSSVVTVPSSSLGTKTYTCNVDHKPSNTKVDKRVESKYGPPCPPCPAPEAAGGPSVFLFPPKPKDTLMISRTPEVTCVVVDVSQEDPEVQFNWYVDGVEVHNAKTKPREEQFNSTYRVVSVLTVLHQDWLNGKEYKCKVSNKGLPSSIEKTISKAKGQPREPQVYTLPPCQEEMTKNQVSLWCLVKGFYPSDIAVEWESNGQPENNYKTTPPVLDSDGSFFLYSRLTVDKSRWQEGNVFSCSVMHEALHNHYTQKSLSLSL EVQLVESGGGFVQAGESLTLSCTSSTLTFTPYRMAWYRQAPGKQRDLVADISSGDGRTTNYADFAKGRFTISRDNIKNTVFLRMTNLKPEDTAVYYCNTFVSFVGIARSWGQGTQVTVSSESKYGPPCPPCPAPEAAGGPSVFLFPPKPKDTLMISRTPEVTCVVVDVSQEDPEVQFNWYVDGVEVHNAKTKPREEQFNSTYRVVSVLTVLHQDWLNGKEYKCKVSNKGLPSSIEKTISKAKGQPREPQVCTLPPSQEEMTKNQVSLSCAVKGFYPSDIAVEWESNGQPENNYKTTPPVLDSDGSFFLVSRLTVDKSRWQEGNVFSCSVMHEALHNRFTQKSLSLSL light: DIVMTQSPDSLAVSLGERATINCKSSQSLLNSRTRKNYLAWYQQKPGQPPKLLIYWASTRESGVPDRFSGSGSGTDFTLTISSLQAEDVAVYYCTQSFILRTFGQGTKVEIK	100%	111%	112%	110%	110%	109%	109%	108%	–	–	–	–	–	–	–	–
210 (Fab (Light)-Knob+Fab (Heavy)-Hole-CEA) (bispecific antibody, human IgG4 S228P, kappa, F234A L235A, two-chain format: VL-CL fused to knob Fc) light: QAVVTQESALTTSPGETVTLTCRSSTGAVTTSNYANWVQEKPDHLFTGLIGGTNKRAPGVPARFSGSLIGDKAALTITGAQTEDEAIYFCALWYSNLWVFGGGTKVEIKRTVAAPSVFIFPPSDEQLKSGTASVVCLLNNFYPREAKVQWKVDNALQSGNSQESVTEQDSKDSTYSLSSTLTLSKADYEKHKVYACEVTHQGLSSPVTKSFNRGECESKYGPPCPPCPAPEAAGGPSVFLFPPKPKDTLMISRTPEVTCVVVDVSQEDPEVQFNWYVDGVEVHNAKTKPREEQFNSTYRVVSVLTVLHQDWLNGKEYKCKVSNKGLPSSIEKTISKAKGQPREPQVYTLPPCQEEMTKNQVSLWCLVKGFYPSDIAVEWESNGQPENNYKTTPPVLDSDGSFFLYSRLTVDKSRWQEGNVFSCSVMHEALHNHYTQKSLSLSL heavy: EVKLLESGGGLVQPKGSLKLSCAASGFTFNTYAMNWVRQAPGKGLEWVARIRSKYNNYATYYADSVKDRFTISRDDSQSILYLQMNNLKTEDTAMYYCVRHGNFGNSYVSWFAYWGQGTLVTVSSASTKGPSVFPLAPCSRSTSESTAALGCLVKDYFPEPVTVSWNSGALTSGVHTFPAVLQSSGLYSLSSVVTVPSSSLGTKTYTCNVDHKPSNTKVDKRVESKYGPPCPPCPAPEAAGGPSVFLFPPKPKDTLMISRTPEVTCVVVDVSQEDPEVQFNWYVDGVEVHNAKTKPREEQFNSTYRVVSVLTVLHQDWLNGKEYKCKVSNKGLPSSIEKTISKAKGQPREPQVCTLPPSQEEMTKNQVSLSCAVKGFYPSDIAVEWESNGQPENNYKTTPPVLDSDGSFFLVSRLTVDKSRWQEGNVFSCSVMHEALHNRFTQKSLSLSLGGGGSGGGGSEVQLVESGGGFVQAGESLTLSCTSSTLTFTPYRMAWYRQAPGKQRDLVADISSGDGRTTNYADFAKGRFTISRDNIKNTVFLRMTNLKPEDTAVYYCNTFVSFVGIARSWGQGTQVTVSS	–	–	–	–	–	–	–	–	105%	97.3%	101%	102%	100%	101%	102%	101%
